Data published in article PMC2650276 (Neuron, 2009).
Like-named read-outs stand apart in the source and are kept apart here. Where no end group is shown, it is not given here.

Assays:
Assay in all cases: pull-down
[1] = target: T1, His-tagged full-length CaMKIIα (M1-H478), wild type (rat, UniProt P11275 1-478)
[2] = target: His-tagged WT pCaMKIIα (autophosphorylated at T286) (rat, UniProt P11275 1-478, phosphothreonine at T286 (autophosphorylation))
[3] = target: GST-tagged full-length CaMKIIα (M1-H478) (rat, UniProt P11275 1-478)
Sequence of GST-tagged full-length CaMKIIα (M1-H478) (P11275 whole entry): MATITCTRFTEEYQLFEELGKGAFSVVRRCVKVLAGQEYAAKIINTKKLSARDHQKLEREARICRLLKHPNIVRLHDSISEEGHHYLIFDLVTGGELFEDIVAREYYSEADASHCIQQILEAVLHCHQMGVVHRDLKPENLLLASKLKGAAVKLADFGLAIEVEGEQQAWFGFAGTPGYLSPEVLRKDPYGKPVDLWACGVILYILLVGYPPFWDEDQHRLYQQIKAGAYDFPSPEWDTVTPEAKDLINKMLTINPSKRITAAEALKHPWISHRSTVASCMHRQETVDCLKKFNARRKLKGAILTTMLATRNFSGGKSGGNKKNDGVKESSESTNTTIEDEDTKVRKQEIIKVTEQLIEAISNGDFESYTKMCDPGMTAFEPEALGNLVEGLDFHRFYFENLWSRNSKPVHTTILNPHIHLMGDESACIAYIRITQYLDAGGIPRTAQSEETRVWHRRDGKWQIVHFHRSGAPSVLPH

[4] = target: T1, His-tagged full-length CaMKIIα …; remark: listed apart in the source
[5] = target: T1, His-tagged full-length CaMKIIα …; remark: listed apart in the source

T1 sequence (P11275 whole entry): as above
Sequence of His-tagged WT pCaMKIIα (autophosphorylated at T286) (P11275 whole entry): as above

B1: GST-D3RIL3 (R210-Q375) (domain or fragment, rat, UniProt P19020 210-375, looked up)
chain: RIYIVLRQRQRKRILTRQNSQCISIRPGFPQQSSCLRLHPIRQFSIRARFLSDATGQMEHIEDKQYPQKCQDPLLSHLQPPSPGQTHGGLKRYYSICQDTALRHPSLEGGAGMSPVERTRNSLSPTMAPKLSLEVRKLSNGRLSTSLRLGPLQPRGVPLREKKATQ
binding result [1]: binds
binding result [2]: binds

B2: D3RIL3 (R210-Q375), released from GST by thrombin (domain or fragment, rat, UniProt P19020 210-375, looked up)
chain: RIYIVLRQRQRKRILTRQNSQCISIRPGFPQQSSCLRLHPIRQFSIRARFLSDATGQMEHIEDKQYPQKCQDPLLSHLQPPSPGQTHGGLKRYYSICQDTALRHPSLEGGAGMSPVERTRNSLSPTMAPKLSLEVRKLSNGRLSTSLRLGPLQPRGVPLREKKATQ
binding result [3]: binds

YGRKKRRQRRRRILTRQNSQCISIRP (also: biotin, position not given here) [biotinylated Tat-D3Rr]
binding result [4]: binds

RIYIVLRQRQRKRILTRQNSQCISIRPGFP (domain or fragment, rat, UniProt P19020 210-239, looked up) [GST-D3RIL3(R210-P239)]
binding result [5]: binds
binding result [2]: binds
